In publication PMC3565064 (Analytical biochemistry, 2012):
Ends that are not written are not given here. * marks the point of attachment. Fc = ferrocene monocarboxylic acid coupled as acyl group on the N-terminus, O=C([c-]1cccc1)*.[Fe+2].c1cc[cH-]c1

Biological target: amyloid beta peptide Aβ(1–42) (UniProt P05067 672-713)
Assay: differential pulse voltammetry of the ferrocene tag

Fc-KLVFFKKKKKK [ferrocene-tagged β-sheet breaker peptide Fc-KLVFFK6] was tested, and the “t1/2 at [Fc-KLVFFK6]:[Aβ(1–42)] 1:0.25” value was 1.29 h, the “t1/2 at [Fc-KLVFFK6]:[Aβ(1–42)] 1:0.5” value was 1.35 h and the “t1/2 at [Fc-KLVFFK6]:[Aβ(1–42)] 1:1” value was 1.53 h. The “t1/2 at [Fc-KLVFFK6]:[Aβ(1–42)] 1:2” value was 1.13 h and the “t1/2 at [Fc-KLVFFK6]:[Aβ(1–42)] 1:4” value was 1.02 h.
